± gives the half width of the 95% confidence interval.
How the values were obtained:
[1] = folding stability dG unfold from chymotrypsin proteolysis; higher = more stable
Procedure, shortened: (§1)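 Bayesian fitting of sequencing counts gave K50 for each design. Unfolding free energy followed by setting this against a sequence-predicted unfolded-state K50 and a shared folded-state K50, either per protease or with trypsin and chymotrypsin combined. The designs, under 80 residues and lacking cysteine, were digested in a PA-tagged cDNA display format at 11 threefold-diluted protease concentrations and without protease, and only those with AlphaFold2 dimer inter-PAE above 15 were kept.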

[2] = folding stability dG unfold (combined trypsin and chymotrypsin); higher = more stable
Procedure, shortened: as §1

[3] = folding stability dG unfold from trypsin proteolysis; higher = more stable
Procedure, shortened: as §1

| Sequence | folding stability dG unfold [1] [kcal/mol] | folding stability dG unfold [2] [kcal/mol] | folding stability dG unfold [3] [kcal/mol] |
| --- | --- | --- | --- |
| SAMIEVINATDPVTGKPYTITREGEGITVTDPETGKTYAATKDGDTITLDAGDTPLTLTPVSTVPESLLSAG [r14_208_JUSTAS] | 0.989 ± 0.16 | 1.01 ± 0.1 | 0.839 ± 0.041 |
| SAGGSIWIPIDSPEDVEEAIDFIQDFLAERGMPPGHDIKKIKVERMENGHYWVEIEFPGRKIYIWVSAGGSA [r2_120_TrROS] | 4.02 ± 0.054 | 3.65 ± 0.084 | 2.62 ± 0.049 |
| SAKGTLELTFPTTKVTVEVEKVDPVNNKVYARAVFPNGFVVDAVFDPKTGKVYVEVKEVKPTKDGGYSLSAG [r14_466_TrMRF] | 1.46 ± 0.11 | 1.44 ± 0.15 | 1.24 ± 0.046 |
| SAGMMVKVEIEFPLTLTTTEKVGTGPNGIPVFETREEIVVITFRATVPENPEEVAAAKEEAKAVAEALSSAG [r14_223_JUSTAS] | 2.08 ± 0.11 | 1.89 ± 0.2 | 1.8 ± 0.042 |
| SAGGPRVEVEEVELEGDYLVVRARVEVPLDDGTYEFELTLVLPVPPPPLPLPPVDPRFPRAPDDDLVSAGGS [r8_234_TrMRF] | 1.33 ± 0.073 | 0.971 ± 0.13 | 0.584 ± 0.073 |
| SAGGSAGGKTYIVKIVVKNKNGEELELTLEVETEEEAKEAAEELAKKLEEAGYEIVKVEIKKLPSAGGSAGG [r6_869_TrROS_Hall] | 4.11 ± 0.14 | 4.02 ± 0.2 | 3.64 ± 0.27 |
| SAGGSAGGSADGNKPPEIKINLEVERHPNGMVEITATLHWPGGKEFPVRIMYNPDKIFIEISAGGSAGGSAG [r3_259_TrROS] | 3.4 ± 0.16 | 3.19 ± 0.14 | 2.95 ± 0.31 |
| SAGGDPIEDIVKEIAEEHGYPIKNVEVEPVDPNTLVVEVQMPNGYRIKIEIPYDPDGDLNINVEWEPSAGGS [r8_284_TrROS] | 2.04 ± 0.045 | 1.65 ± 0.23 | 1.13 ± 0.11 |
| SAKKENSVPVTIEIELEFDSIEKAKKAIEKLAAEIEKETGAKIEIKVEIEEKENNYIVKVELTIYLPKESAG [r14_626_TrMRF] | 1.55 ± 0.051 | 1.64 ± 0.077 | 1.6 ± 0.06 |
| SAGGSAGGRWYIMIEIRFPGNGRQFSFMIPIPPGDEVDIKLDELAEWFGFPNVKVDIQVMPLEKSAGGSAGG [r6_722_TrROS] | 4.75 ± 0.12 | 4.45 ± 0.18 | 3.41 ± 0.3 |
| SAGKMLVVRIEVEVEVEVTVEKDGKKETFKEKKKLTLTLVFESEEEAEAAKKELEKLFPDLKIEVVPLPSAG [r5_453_TrROS_Hall] | 4.56 ± 0.16 | 4.54 ± 0.2 | 4.43 ± 0.47 |
| SAGGSAGGSAGGATFKPGETVRVEVEVELRVFKVDEETGEIVEETETVTVRVEVEVRLESAGGSAGGSAGGS [r10_122_TrROS_Hall] | 2.32 ± 0.053 | 2.04 ± 0.11 | 1.87 ± 0.1 |
| SAGGSAGGMKVRVKIEVEGKTLEIEIEVPEEKREEALEKAKKLAEKLAEELDVEVKIVEVEEEPSAGGSAGG [r6_459_TrROS_Hall] | 2.41 ± 0.073 | 2.01 ± 0.12 | 1.04 ± 0.034 |
| SAGGSAGGSAGGSILLITTHPKDAEKAAKEIEKILAELDIPPDAKIEVYVVPKEYLPDESAGGSAGGSAGGS [r4_472_TrMRF] | 0.176 ± 0.17 | 0.329 ± 0.14 | 0.323 ± 0.035 |
| SAGGKYGYKIEIEIAIFRIPPGAEVEPERIGNIEIYRIRFPDGNWLIMIRIKVKPMPPPPPEKKDNDDSAGG [r13_804_TrROS] | 4.7 ± 0.23 | 4.22 ± 0.34 | 3.61 ± 0.22 |
| SAGGSAGGSAGGMKIPPSLLTEVKESIVPTPEGSTKITTVTAKVPGTGEVVTYTLTTPVASAGGSAGGSAGG [r7_348_JUSTAS] | -0.744 ± 0.31 | -0.242 ± 0.11 | 0.0354 ± 0.032 |
| SAGGSAGGSAGEEEELPLVIRVRFKGPEEVEIEIEAESLEDALAAIESLPDIEEIEILPRSAGGSAGGSAGG [r11_587_TrROS_Hall] | 1.982 ± 0.0079 | 1.61 ± 0.055 | 0.632 ± 0.034 |

— the supplement of paper PMC12764529
